# Measured values reported in the nanobody polyreactivity screen of Harvey et al. (2022).
# Experiment: yeast display, Sf9 membrane polyspecificity reagent, FACS + sequencing; frameworks hold sequencing errors
# How it was run: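 Nanobodies came from a synthetic yeast display library in Saccharomyces cerevisiae BJ5465, induced with galactose for 36–48 hours and stained for 1 hour at 4 °C with 10% biotinylated, detergent-solubilized Sf9 membrane reagent. Cells were enriched on streptavidin microbeads and then FACS-sorted, with low and high (top ~1%) gates set on anti-HA fluorescence for expression and streptavidin fluorescence for reagent binding. Each polyreactivity label reflects the gate a clone came from. Genes were amplified by colony PCR, sequenced by MiSeq 2 × 250 and filtered by CDR length.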
row,Sequence,polyreactivity (PSR sort gate)
1,QVQLVESGGGLVQAGGSLRLSCAASGITFDGYAMGWYRQAPGKEREFVAAISRSGTSTYYADSVKGRFTISRDNAKNTVYLQMNSLKPEDSAVYYCNKKWPRLYYYWGQGTQVTVSS,high polyreactivity
2,QVQLVESGGGLVQAGGSLRLSCAASGITFDHYAMGWYRPAPGKERELVATIRGSGTSTYYADSVKGRFTISRDNAKNTVYLQMHSLKPEDTAVYYCAARGRYRQFNYWGQGTQVTVSS,high polyreactivity
3,QVQLVESGGGLVQAGGSLRLSCAASGITFDKNTMGWYRQAPGKERELVAAISARGGSTYYADSVKGRFTISRDNAKYTVYLQMNSLKPEDTAVYYCAATRSYSYRTVYRRKYNYWGQGTQVTVSS,high polyreactivity
4,QVQLVESGGGLVQAGGSLRLSCAASGITFDKYALGWYRQAPGNERELVAAISGSDGSTYYADSVKGRFTISRDNAKNTVYLQNNSLKPEDTAVYYCAAESEYAGTYEYDYWGQGTQVTVSS,low polyreactivity
5,QVQLVESGGGLVQAGGSLRLSCAASGITFDKYAMGWYRQAPGKERELVARITSGGGTNYADSVKGRFTISRDNAKNTVYLQMNSLKPEDTAVYSCNKRTSPKRFDYWGQGTQVTVSS,high polyreactivity
6,QVQLVESGGGLVQAGGSLRLSCAASGITFDLYAMGWFRQAPGKERELVAAISISSTSTYYADSVKGRFTISRDNAKNTVYLQMNSLKPEDTAVYYCNAVPSSKTFWFDYWGQGTQVTVSS,low polyreactivity
7,QVQLVESGGGLVQAGGSLRLSCAASGITFDNYAMGWYRQAPGKEWELVAAISSDDNTTYADSVKGRFTISRDNAKNTVYLQMNSLKPEDSAVYYCAADSRIYGYWEYDYCGQGTQVTVSS,low polyreactivity
8,QVQLVESGGGLVQAGGSLRLSCAASGITFDNYAMGWYRQAPGKEWELVAAISSDDNTTYADSVKGRFTISRDNAKNTVYLQMNSLKPEDTAVYYCAADSRIYGYWEYDYWGQGTQVTVST,low polyreactivity
9,QVQLVESGGGLVQAGGSLRLSCAASGITFDQNAMGWSRQEPGKESEFVAAISVSGARTYYADSVKGRFTISRDNAKNTVYLQMNSLKPEDTAVYYCAAYGGTRYYYSYYYWGQGTQVTVSS,high polyreactivity
10,QVQLVESGGGLVQAGGSLRLSCAASGITFDSYALGSYRQAPGKERELVAAISGSGGSTYYADSVKGRFTISRDNAKNTVYLQMNSLKPEDTAVYYCAADWYPTGFYYWGQGTQVTVSS,low polyreactivity
11,QVQLVESGGGLVQAGGSLRLSCAASGITFDSYAMGWYRQSPGKEREWVDAISYSGGSTYYADSVKGRFTISRDNAKNTVNLQMNRLKPEDTAVYYFAAASDEDYDYWGQGTQVTVSS,low polyreactivity
12,QVQLVESGGGLVQAGGSLRLSCAASGITFDTYVMGWYRQAPGKERELVAAISNSDGSTYYADSVKGRFTISRDNAKNTVYLQMNSLKPEDTAVYYCNAQSYYYWHLRYDYWGQGTQVTVSS,high polyreactivity
13,QVQLVESGGGLVQAGGSLRLSCAASGITFDYYAMGWYRQAPGKERELVAAISRSGGSTYYADSVKGRFTISRDKAKNTVYLQMNSLKPEDTAVYYCAAYALTIRAYYYWGQGTQVTVSS,high polyreactivity
14,QVQLVESGGGLVQAGGSLRLSCAASGITFDYYAMGWYRQAPGKERELVAAITSRGGSTYYADSVKGRFTISRDNAKNTVYLQMNSLKPEDTAVYYCAAVRSGYYNYWGQGTQVTVSS,high polyreactivity
15,QVQLVESGGGLVQAGGSLRLSCAASGITFDYYAMGWYRQAPRKERELVPGISWGGGSTYYADSVKGRFTISRDNAKNTVYLQMNSLKPEDTAVYYCAADIVSSPSSYVPPGDYWGQGTQVTVSS,low polyreactivity
16,QVQLVESGGGLVQAGGSLRLSCAASGITFDYYGMGWYIQAPGKERELVASITSGGSTNYADSVKGRFTISRDNPKNTVYLQMNSLKPEDTAVYYCNAEFWEVSPDPRDYDYWGQGTQVTVSS,low polyreactivity
17,QVQLVESGGGLVQAGGSLRLSCAASGITFENYAMGWYRQAPGKETELVASITRSGGNTYYADSVKGRFTISRDTAKNSVYLQMNSLKPEDTAVYDCAKDSGLNDDFIYWGQGTQVTVSS,low polyreactivity
